The results in this text go back to publication PMC3577987 (Journal of molecular biology, 2012).

Where a chain is given by its changes, count along the chain named. Names and notes keep the numbering of the source.

The data set “SAXS” deals with the molecule itself. Kind of data set: SAXS.
The data set “pulsed dipolar ESR” deals with the molecule itself. Briefly: pulsed dipolar ESR.
The data set “crystal structure” deals with the molecule itself. Kind of data set: crystal structure.

B1: Aer2 1–317 (domain or fragment)
chain: MGLFNAHAVAQQRADRIATLLQSFADGQLDTAVGEAPAPGYERLYDSLRALQRQLREQRAELQQVESLEAGLAEMSRQHEAGWIDQTIPAERLEGRAARIAKGVNELVAAHIAVKMKVVSVVTAYGQGNFEPLMDRLPGKKAQITEAIDGVRERLRGAAEATSAQLATAAYNARIKSALDNVSANVMIADNDLNIIYMNRTVSEMLGRAEADIRKQLPNFDAGRLMGANIDVFHKNPAHQRHLLANLTGVHKAELNLGGRRFSLDVVPVFNDANERLGSAVQWTDRTEEHRAEQEVSQLVQAAAAGDFSKRVEEAGK
Consider B1, for which the binding result in “SAXS” was “binds”.

B2: Aer2 1–402 S183C, MTSSL spin-labeled (domain or fragment)
chain: MGLFNAHAVAQQRADRIATLLQSFADGQLDTAVGEAPAPGYERLYDSLRALQRQLREQRAELQQVESLEAGLAEMSRQHEAGWIDQTIPAERLEGRAARIAKGVNELVAAHIAVKMKVVSVVTAYGQGNFEPLMDRLPGKKAQITEAIDGVRERLRGAAEATSAQLATAAYNARIKSALDNVCANVMIADNDLNIIYMNRTVSEMLGRAEADIRKQLPNFDAGRLMGANIDVFHKNPAHQRHLLANLTGVHKAELNLGGRRFSLDVVPVFNDANERLGSAVQWTDRTEEHRAEQEVSQLVQAAAAGDFSKRVEEAGKEGFFLRLAKDLNSLVDTADRGLRDVSRMLGALAQGDLTQRIEADYQGTFGQLKDFSNDTAQSLSRMLGQIREAADTINTAASEIA
modifications: MTSSL nitroxide spin label on C183
Turning to B2, the binding result in the data set “pulsed dipolar ESR” is reported as “binds”.

B3: Aer2 1–402 (domain or fragment)
chain: B2 chain with C183S
As for B3, in “SAXS”, the binding result is listed as “binds”.

B4: Aer2 173–289 K176A E275A (domain or fragment)
chain: ARIASALDNVSANVMIADNDLNIIYMNRTVSEMLGRAEADIRKQLPNFDAGRLMGANIDVFHKNPAHQRHLLANLTGVHKAELNLGGRRFSLDVVPVFNDANARLGSAVQWTDRTEE
On to B4, for which, in “crystal structure”, the binding result was “binds”.
